This passage reports protein production results from a protein production outcome set (Wang et al. 2014).

The series is described as follows: label from the status in PepcDB records.

With “MRRSKYFTPNEVSLHNTINDIWVSYLGKVYDLTPLLEAYKGDVLLKPIIECAGKDISHWFDPKTKDILTHVDPLTGCIKYYTPRGRFIHIPPPCPRTDWANNFGKPWWKDNRYEVGLLSAKTRWIRIINTLTSQEQKLEVCSEESLDEILHRYLFYNSHAASYTWKLSGINLDMSKTLSENGIPEEDEFYCGSPDCNLFSPSICLYFNDDLTEL”, the protein production result is reported as “failed”. “MRRTPRKATAAGALMAATAFLTVGIQAVPATAKPAAPHPSPLRTGGQEAKLTPAQHSALLKSAAKKTTTTAATLGLGAKEKLVVRDVVKDNDGTLHTRYERTWAGLPVLGGDVVVHTPPASLAAGTVSSTFNNKRTIKVASTTASFTRSAAVTKALKAAKDLAAEKATTDSARKVIWAGSGAPKLAWETVIGGLQDDGTPSQLHVITDATTGKELYRYQGVKTGTGNTQYSGTVSLSTTLSGSTYQLYDTTRGGHKTYSLNNGTSGTGTLMTDADDTWGTGSGSNTQTAGADAAYGAQTTWDFYKNTFGRSGIKNDGVAAYSRVHYSTAYVNAFWDDDCFCMTYGDGTSSTHALTSLDVAGHEMSHGVTSNTAGLNYTGESGGLNEATSDIFGTGVEFYAANSSDVGDYLIGEKIDINGDGTPLRYMDEPDKDGGSADSWYSGVGNLDVHYSSGPANHMFYLLSEGSGSKTINGVTYNSPTSDGVAVAGIGRAAALQIWYKALTTYMTSSTNYAGARTAALNAATALYGASSTQYAGVANAFAGINVGSHVTPPTSGVTVTNPGSQSSTVGTAVSLQVSASSTNSGSLTYAATGLPTGLSVNSSTGVISGTPTTAGTYSTTVTVTDSTGATGTASFTWTVSSSGGGGTCASTQLLGNPGFESGNTTWTASSGVITNSSSEAAHAGSYKAWLDGYGSTHTDTLSQSVTIPSGCKASLTFYLHIDTAETTTSTQYDKLTVTAGSTTLATYSNLNAASGYTQKTFDLSSLAGTTVALKFSGVEDSSLQTSFVIDDTALTTS”: the protein production entry was “failed”. “MRSDVVARAMRLIADGTVDRDGVSGLAAQLGYTIRQLERLLQAVVGAGPLALARAQRMQTARVLIETTNLPFGDVAFAAGFSSIRQFNDTVRLACDGTPTALRARAAARFESATASAGTVSLRLPVRAPFAFEGVFGHLAATAVPGCEEVRDGAYRRTLRLPWGNGIVSLTPAPDHVRCLLVLDDFRDLMTATARCRRLLDLDADPEAIVEALGADPDLRAVVGKAPGQRIPRTVDEAEFAVRAVLAQQVSTKAASTHAGRLVAAYGRPVHDRHGALTHTFPSIEQLAEIDPGHLAVPKARQRTINALVASLADKSLVLDAGCDWQRARGQLLALPGVGPWTAEVIAMRGLGDPDAFPASDLGLRLAAKKLGLPAQRRALTVHSARWRPWRSYATQHLWTTLEHPVNQWPPQEKIALEHHHHHH”: the protein production result is “failed”.

With “MRSKFVLFMLMSLLTGSLMANSEAQIYGYVEKATLIDQNLTLSAKLDTGAKSASLHAVNITEIEKKGIPYLRFTVPTKTGDYSFEGEYVGKVKIKVRSSETNPGLLRTTPIKRPVVLLNIKLGDKVRTIKVNLTNRKRFLYPLLLGRDAIIDFNGAVDPALTFTTKSKSPVNNEK”, the protein production result is given as “failed”. “MRSLTHIAKIEPPPVRRVTYVKHYSIQPANLEFNAEGTPVSRDFDDVYFSNDNGLEETRYVFLGGNQLEVRFPEHPHPLFVVAESGFGTGLNFLTLWQAFDQFREAHPQAQLQRLHFISFEKFPLTRADLALAHQHWPELAPWAEQLQAQWPMPLPGCHRLLLDEGRVTLDLWFGDINELTSQLDDSLNQKVDAWFLDGFAPAKNPDMWTQNLFNAMARLARPGGTLATFTSAGFVRRGLQDAGFTMQKRKGFGRKREMLCGVMEQTLPLPCSAPWFNRTGSSKREAAIIGGGIASALLSLALLRRGWQVTLYCADEAPALGASGNRQGALYPLLSKHDEALNRFFSNAFTFARRFYDQLPVKFDHDWCGVTQLGWDEKSQHKIAQMLSMDLPAELAVAVEANAVEQITGVATNCSGITYPQGGWLCPAELTRNVLELAQQQGLQIYYQYQLQNLSRKDDCWLLNFAGDQQATHSVVVLANGHQISRFSQTSTLPVYSVAGQVSHIPTTPELAELKQVLCYDGYLTPQNPANQHHCIGASYHRGSEDTAYSEDDQQQNRQRLIDCFPQAQWAKEVDVSDKEARCGVRCATRDHLPMVGNVPDYEATLVEYASLAEQKDEAVSAPVFDDLFMFAALGSRGLCSAPLCAEILAAQMSDEPIPMDASTLAALNPNRLWVRKLLKGKAVKAG”: the protein production entry is on record as “failed”. Take “MRSQPTVSVIVPARNEAGNIAAAVERLPELGAETELIFVEGHSRDQTWETIEQTVAEYQGPLKLLACRQTGKGKADAVRLGFDKASGDILMILDADLTVQPEDLGHFYRAIASGRGEFINGSRLVYPRSRLAMPGLNTLANRTFALIFSFLLGQPLKDTLCGTKVLWKTDYDRVAAGRKYFGDFDPFGDFDLLFGAAKLGLEIVEVPVRYQERSYGSSNIAHVREGLILARMCLYAAGKLKFPLEHHHHHH”: the protein production entry was “failed”. In the case of “MRSTTSTLMLIKKTAIAVSLAVGSMVISGCDTNEVAKEISQPTIRPALTEIVSPSANAQLRFNGVVRSAQRADLAFRMSSRVISVLVDEGQQVKKGQLLAQLDPRDAQTALESARVEYKNSKAEYTRGKAIYEKSQAIAKSDLDTLTTRYQLAKNRLDEAQRQLEYTQLHAPFDGVIGKKMIDNHVQIQANSPVLTVHNVDDLEVLINIPDSVMLGDLKGSKALAQISALRNETFPLVLSTYGTQADPITQTYPVVLTFEDLRGFNVLPGMTVKVVPVYSDEQDQASLLITVPLTAVVPDNQGGQFVWVVTQENKVQKRIISAGTLVSNRIVINDGLQTGERIITAGASSLKEGMEVRPYTDTLSSQVEK”, the protein production result is reported as “failed”. Regarding “MRTFTWRKGSLSKVNTCYVLAGGKSKRFGEDKLLYEIKGKKVIERVYETAKSVFKEVYIVAKDREKFSFLNAPVVLDEFEESASIIGLYTALKHAKEENVFVLSGDLPLMKKETVLYVLENFKEPVSVAKTEKLHTLVGVYSKKLLEKIEERIKKGDYRIWALLKDVGYNEVEIPEELRYTLLNMNTKEDLKRILAIENHY”, the protein production entry is listed as “not failed”.

As to “MRTGRSPPTPSTRCAVALVCSWSLIRVVRLSMARRSRCRLGMPSGVPGRCRRFSMTLTSLSGSTWNTRLLTAPISVRSCCTQPSWVVSRGLLVCLPSITPVLSRYGSLRSRCAWCRWLRPLTTTSPGSQRCWVPAGFGSRRTCPRTGLARRSATPLRTRCLSSSSRAVRMPRLVPYPSGCVMALRSMASSWTRQCVSLQLGTVGTATTIRLPRRCAESLMTEDYRLEFAEELVGVPDPFRRFWTPYRMAYISGENKPRGNRPEDGCPFCRAPQRSDEDALIVHRGEHCYVIMNLYPYGPGHMLVCPYRHVAGYVDATQDEVVEMAELTQDAIRTLQEVSRPQGFNVGINQGASGGAGVAAHLHQHVIPRWTGDTNFLPIVAGVRAVPQLLGDGRQMLADAWVGHA”, the protein production result is “failed”.

Regarding “MRTKILLLTFTLLSSFSVLSQGNDLEQGMYELNRGEFKAAIEQFRPLVNEGYAPAQYQMALVYLHGYSVRKDSMKALELFELSAAQNYPDAQFELALIYSDGKLVKQNLKKAFELTHKAANKDLPSAQFNLAVMYANGTGIKQDDFKASRWYQRAANQNYALAQFNLALLYSEGKGVEKSTELSYVWNTIASWNGYPNAEKSRLMDERDLSKLKIEKSIEKANDIYQKIRDQQEMKAKMAEKQNFY”, the protein production result is “failed”. On to “MRTNKDRLVRISVVGEIAPAKMRSPYSVTTEGTVRVIPVLGGITYNVKVGDSAYGWAGDHVEPGVSVMARRKEEEIPLMTLSCIGNEVIVMSGDAKGSRGFVTGKHGGVNHVLVHFEEEVLGKLMVGDKILIKAWGQGLKLLDHPDVKVMNIDPDLFEKLGIQEKNGKIHVPVVAKIPAHMMGSGIGASSSASTDYDIMASNPEDLGVADLKLGDIVAIQDHDNSYGVGKYRKGAVSIGVVVHSACVSAGHGPGVVVIMTGDESKILPEEVERANISDYLVR”, for which the protein production result was “not failed”.

Take “MRTPRFLRAVHANRTTARDVSSLRLPLQPRRDRARPGAMRTGLQGSVGIQCQLQRQHCQRQVASHAHYCADRGAVHCDGIACLDRAIGFQQLQGALGLAQEMRARHDLLTRVAAFFDAVGLQTVECQLLWRPLFALALDQASEPQLQIRAPPLRIYARRFDRRCQCFFGVQQQGARQRSAAQIQHDTLRSEIGLRGARAFRCCEAAKGKQRGSADFQLAAEDETAELGGDLGRVAVRQQHQQVCIVLTQKCEDGNHAPLRRQPRIPLPLPNRQRLYVIGKLGMRERHCIRADQSDVLDILQGAKTLRNKIQVVSHGRGGLKSPSCESTMIGHPTPTPAQDSETQPSSQEHIPEKKPLPKEIGGRDGPEPTRYGDWEKNGRCIDF”: the protein production entry is “failed”.

“MRTTADRIRHTVGFELIGLLIFAPLASLVFGYALHQMGLVGAVASLIAAVWNYVYNILFDRGMLRFTGQLRKTPAIRVLHAILFEGGLLLVFLPSVAWYLDMTLLDAFIMDIAVAGFYMVYALVYNWVYDAVFPIPGLKAKEDSQPADCPSAN”: the protein production result is “failed”. “MRTVDVFHPQAASNSAAVHASPQTTVAFSPDGTHYASAGYDGRVVLWDRSGTSPRWVGRHSRLVNGVRFSPSGRLLASGSADKTCRIWEVATGRQVQLLARQPDDLNALAWLDENRLVTVSQDGTGRIWDIRTGVLQEGVIFHADHCMSVDAAPTGVLASCGEDATIRLWDTDGSLLRDLPQAGHAEMCRWSPDGTLLAASCDDGFVHIVRTDGELVTKVGPYTAAVKSVAWSQDGSRIVIGAYDSTIALWDIADCRPLVRWYGAHLWPRAVDWSADGRTVVAGTFSARPAVIDVPEIPADALPDEVREITLEASVPTHGVNHVSAAGEVLAAGGDNGTIRVWSHRGATATEVPVGNGSLVNTVAVSAELPGLVAYGSFSGRVGVADAVTGRDVAAVQREHPVNRAAWSPDGRRLAVADYEGGLDLYAWTGRELVPGVHYAGHDGAIKDVSWVDADRLVTYSTDRRAHLITTEGTLIRSFGGHGELINGGSVTTVAGRALLATVSRDRTSRIYDLETGELLQVLVGHDESAKCAAWHPGGEPLLVTGSYDFTGRLWVLDPKTLAPLHQHVLEGHGSAVSAVCWLGDDAVTASWDSKVFTWTPDADPARPPAAAEPATDWRVREGSR”: the protein production result is “failed”. Turning to “MRTVVDYGAAIAFGVAYFVTKDFQKATWVLVAASAAALAIGYAVERRLAMLPLFFGGMALVFGTLGLIFGSDVFVKIKVTVINLALASFLVGGVLLKRQPLKVIMGEALHLPDAAWRTLTLRYGAYFAFVAIINEVVRNTQDTDTWVKFRLALLPVALVFVATQLPFMMKHMAKGDDAKAVEPPDAGF”, the protein production entry was “failed”. As for “MRVAILGCGYVGCALARRLLAAGHDVVGVCRSPDSLDAVRETGATAVRADVTDAASLAAVPDADAVVFAASSGGRGADAAREVYVDGLRTVVEQFGGRDDPPEQLVYTSSTGVYGDHDGDWVDEETPLDPTTEKTAALVDAERVALTDASEHGLDPTVVRFAGLYGPDRYRLTRYLDGPVTEGYLNMIHRDDAAGVVAFALTDADADVLLAVDDDPVSKWAFADWLADEAGVPQPAKQTVAERIAAGDLSTPAERRLRTSKRCSNARLTELGYSFAHPTFRSGYQAAIRAHERGEYK”, the protein production entry is given as “failed”. For the sequence “MRVAVITDSHGNAYALEATLREVHAAAPDLIVNLGDQIEGCADPARAAALQADLGALEVRGNNEEKLWPDGRRTPLAQEVGAWLAAQVSPADRERLAALPLTARVEGLFACHGTPESAWDSLLWVWDAAGGFYRSRDPRELRRMVEPLGAEVVVCGHTHRAGATRVGDTLVVNCGAISDQVDGDPRARWTLLERRGGGWNVEFHNVAYDIAGAVAWARAHSPFGDFEAHLLESGEMTGRGTGGI”, the protein production result is on record as “failed”. Take “MRVDIWSDVVCPFCYIGKKRLEHVAAEAGIELDVHWHSFELDPDAPTSHDTSNTERLAKKYGRTFEEMQEMQQNIASMAAQEGIDFQWQKANSGNSFNAHRIIHLAQSKGLGNEAEEAFFHAYMTEGLAIGEREVVEEIASRIGLDHAEVEFVLDSNELSDFVRHDEKIAHEQLNISGVPFFVFDQKLALSGAQPKEVFLQVLQKALTQRENDAVAEASSDAVCSDDSCDIPQKS”: the protein production entry is given as “failed”.
